Results: the DeepSol protein solubility set

assay: soluble on expression in E. coli; label from the status in PepcDB or PDB records

Row | Sequence | soluble on expression in E. coli
1 | MGSDKIHHHHHHMTIAIIIATHGVAAEQLLKTTEMLIGEQENVATIDFVPGENAETIMEKYQAKLSGDLAHCDKVLFLVDTWGGSPFNAANRVSEGKDNMDIVTGVNVPMLVETFMARDDGPSLDELVAIALETGRTGVRALRYQEPETEPTAPTSEVPAQPAASQAEPQPAMVTPNQEGHLEIGLARIDDRLIHGQVATRWTKESRVSRIVVVSDEVAKDTVRATMLKSVAPPGVTAHVVNVDKMVRVYNNPEYAGERMMLLFTNPTDVLRLSDAGVDFKSINVGGMAYRDGKKMITNAVSVDDKDIAAFKALDAKGIELDVRKVSNDNRQYMMDLLKKNNLL | not soluble
2 | MGSDKIHHHHHHMTIARRKSREVTIGNVRIGGDNPVVVQSMTNTDTRDVEQTVEQINSLAEAGCEIVRVAVLNDDAAWAIRPIKDQVTVPLVADIHFDHRLAVSALEAGVDALRINPGNIGGQKNVDKVVDAAKAHGSVIRVGVNGGSLERDLVEKYCGPTPEAMVESALRHVRMLEDRNFDNIKISLKSSSVTDTVTAYRLLGQQCEYPLHIGVTEAGTMLRGSVKSSVGIGILLWQGIGDTLRVSLTEDPVAEMAVAWEILRSLGLRFRGPEIISCPTCGRTEIDLISLAGEIERRLQNETQSFKVAVMGCVVNGPGEAREADIGIAGGRDKGIIFRHGEVIRTVKGGSNLLAAFNEELDKFLAERQGR | not soluble
3 | MGSDKIHHHHHHMTIATDSLKLITTVEQLKYYLIQAMKIEHATIPPYMTALYSIKPGKNLEAFHIIREVAVEEMLHLTLVANVYNAVGGSFASPVLTAPNFIPTYPSYLPTGSTDFKVGLTKFSKKTIETFRKIERSKDVEEGDPLVESRSLQEYLLEVVGCDPTKTFYSIGLFYAEIIRGLNALYKEKGPDLFCGDPRRQITPEYYYNGGGDIIPVTDLRSAMRALKVIQEQGEGSRSGTIYDAERELAHDYRFQQILLEKYYVIDKDDPTKSDQPNEPTGKSFNVDWNEVYPIKDNAKLSDYPEGSEVRTAALAFHSAYSEFLAKIEYAFDGHPEQLVPAVGGMFRLKEQANSLMRNPIPGNPGVNAAPIFKLDKR | not soluble
4 | MGSDKIHHHHHHMTIDDLKSFMLVCRLHSFSTAAVELSMTQSALSKRLQAIQQEVGSEFISTENRRQILITESGKVFYRYAQRIVSSYDELEQELKAYRELKKGNLQIGRVPVMSQYGLTKIINIFERSYPQIDIHLNELEGNDLLMVLKAGEIDAGIIRDIQTKTIDNNHFNSYTLDRDELKVVLPANDSLNNKKRISIEELANYQVISLESGSGIYEKMVEIYNNAGIPLNVGFKTTHIETIMGMIKNSDQITFLFKKSAMPFMNKQLVMLSLDQPIYSNLELICPRENQHKPALTKFIEYMKKYTSEPVESYP | not soluble
5 | MGSDKIHHHHHHMTIMDWNTIKGLVPVSGVQPDFVNCLDAFPVLKRAKETPQEPRYHGEGDVWTHTMMVIESLLQLPDYQTATREQQEILFFAALLHDVAKYRTTVIDPVTGQIGQPGHSRKGAIDARVLLWDADVPFAIREAICRLIAVHQVPFYCLEDERRRVSPIFTIRELSWQLSIPLLATLAEADIRGRICQDQTRVLDSIELFRELAREEGCYGQPRAFVDAHTRLSYFRGADVHPDYPLFQEPGSKVTVMCGLPASGKDTWVRTHRHDLPVVSFDDARTELGLKHGENEGKAVHWATDKARSLLRTHEPFVWNATHLSQQMRTRTLDLCYAYGAEVEIVYLERPRQELLRRNGKRDTTLSNKTLQGMLTKWELPSPTEAHVVRYES | not soluble
6 | MGSDKIHHHHHHMTISRNYDQEIKDTAGHKYAYNFDFDVMHPFMVRAFTPFFRPGNLLELGSFKGDFTSRLQEHFNDITCVEASEEAISHAQGRLKDGITYIHSRFEDAQLPRRYDNIVLTHVLEHIDDPVALLKRINDDWLAEGGRLFLVCPNANAVSRQIAVKMGIISHNSAVTEAEFAHGHRCTYALDTLERDASRAGLQVTYRSGIFFKALANFQWDQILQTDILSKEYLDGCYQLGQQYPDLCASIFLLCEKGINQ | not soluble
7 | MGSDKIHHHHHHMTKHPLKSLAASVRAAIADPARTTFVGSDANPRFELFHAASSLCSQKVRTVLFEKQLPYRSNDMKILSSMGPDGVVPAEHYHAPYVGLRLIAGEEIGREFVSGYSGRTSVQTEGFDPCVVPLLVDYEASRVIADSRRICCYLDAVSRNPVQLVPEDADARALVMQQVDIVDRIPNGTLLYGFHPDADLRPEALRTVMESVYDYKVAALKAMIDANADNAELVSAYRAKIAKEQGGKSVRHDAALQRAARDHVAVLLADLDRLLGTSSPYLLGPHFSLGDVLWGVNLTRLAYLGLASMWKDRPNVIRYVNALLTRPSLRKEAVRATMDSMPPSRYFDVVSGTAEVASM | not soluble
